Assay results reported in US12534533B2, “Anti-chemokine like receptor 1 humanized antibodies and their therapeutic applications” (OSE IMMUNOTHERAPEUTICS, priority 2019, dated 2026).
Numbering of substitutions follows the chain as printed.

What was measured:
colitis induced by TNBS = test: acute inflammatory colitis model induced by TNBS; assay type: in vivo, mice; conditions: RvE1 1 μg per mouse daily, 2G1 10 μg per mouse; FIG. 3
Method: FIG. 3. Effect of an anti-CMKLR1 antibody on a mice acute inflammatory colitis model induced by TNBS. Mice received 200 μL of the haptenating agent TNBS at 5% in 50% ethanol on day 0 and then were injected with isotype control hIgG1 (10 μg per mouse) (x), RvE1 (1 μg per mouse) daily (●), or 2G1 antibody (10 μg per mouse) three times (□) for 5 days, or non-treated (wild type animals) (▴). Mice were sacrificed colon length was measured in each condition.
Colitis was induced in 8-10 weeks-old-C57Bl/6 male mice by intrarectal injection of 200 μL of the haptenating agent TNBS at 5% in 50% ethanol on day 0. Treatments were injected intra-peritoneally; RvE1 (1 μg per mouse) daily for three days, or 2G1 antibody (10 μg per mouse) twice for 3 days. Colitis follow-up consisting of body weight and stool score (0: normal stool; 4: blood in stool) parameters were performed daily (data not represented). When mice are euthanized, colon length representing the pathology severity was measured.

Mice dendritic cells = test: DCs maturation and differentiation, activation markers by FACS; assay type: cell-based; conditions: compared to the excipient or isotype control; FIG. 16
Method: FIG. 1. Effect of the anti-CMKLR1 variants 1G1, 2G1, 3G1 and 4G1 chimeric antibodies on the DCs maturation and differentiation. Mice dendritic cells were incubated during maturation phase (24 h or 48 h) followed by a differentiation phase with excipient or RvE1 or anti-CMKLR1 antibodies variants (mutations on positions 1 and 2 of SEQ ID No. 8, corresponding to the VH-CDR3: 1G1 (LL), 2G1 (LI), 3G1 (IL) or 4G1 (II) or isotype controls (hIgG1 or mIgG)). Cells were then stained for FACS analysis with cell marker antibodies: A. CD80-PE; B. CD86-FITC; C. CD103-PerCPCy5.5; D. I/Ab-APC. Mean of Fluorescence was determined in each condition. E and F represent the viability of the cells measured by FACS using LIVE/DEAD® kit from Life Technologies in each condition after 24 or 48 hours of maturation respectively.
FIG. 16. Study of the myeloid cell activation markers after CMKLR1 pathway activation. Dendritic cells incubated in excipient, RvE1, 2G1 or isotype control (hIgG1) were then stained for FACS analysis with marker antibodies: A. CD80-PE. B. CD86-FITC. C. CD103-PerCPCy5.5. D. CD40-PeCy7. E. I/Ab-APC. Mean of Fluorescence was determined in each condition.
Bone marrow cells were harvested and cultured in RPMI medium supplemented with 10% FBS, glutamine and antibiotics and the dendritic cell differentiation was induced by GM-CSF at 20 ng/ml for 7 days. Then, immature dendritic cells (iDC) were collected and cultured for 24 hours with LPS (100 ng/ml) to induce the maturation from iDC to mDC. Treatments were added during differentiation and maturation at 2 μg/ml.
Dendritic cells were resuspended in PBS-FBS-EDTA and incubated with live and dead (LIVE/DEAD® Fixable Dead Cell Stains Yellow-Life Technologies) for 30 minutes on ice. Staining of CD11c-BV711, CD11b-APCCy7, I/Ab-APC, CD103-PerCPCy5.5, CCR7-V450, CD40-PeCy7, CD80-PE, CD86-FITC (all provided by BD Pharmingen) were performed.

[1] = system: peritonitis induced by Zymosan A; test: peritonitis model (Zymosan A); assay type: in vivo, mice; conditions: vs isotype control
Method: FIG. 7. Effect of an anti-CMKLR1 antibody on a mice peritonitis model. Preventive injection of anti-CMKLR1 was performed before Zymosan A injection (1 mg per mouse in 1 mL): RvE1 (1 μg per mouse) (●), 2G1 antibody (10 μg per mouse) (□) or isotype control antibody (x). A. PMN numbered during the first 50 hours after Zymosan A injection. B. Macrophages numbered during the first 50 hours after Zymosan A injection. C. Resolution index.
Common peritonitis is induced by intraperitoneal injection of Zymosan A® (1 mg per mouse in 1 mL). Preventive injection of anti-CMKLR1 was performed 5 minutes before Zymosan A injection: RvE1 (1 μg per mouse), 2G1 antibody (10 μg per mouse). Murine peritoneal polymorphonuclear neutrophil (PMN) and macrophages were collected at 2-4-8-16-24 and 48 h after Zymosan A injection and numbered by flow cytometry analysis to determinate the resolution index (Bannenberg et al., 2005).

[2] = target: T1, Biot-C7 peptide (human ChemR23 peptide, SEQ ID No. 60) (Homo sapiens, UniProt Q99788); test: activity ELISA assay, binding of biotinylated C7 peptide; conditions: compared to wild-type 2G1; FIG. 23, FIG. 33
T1 construct: purchased synpeptide; host or cells: chemical synthesis
T1 sequence (Q99788 275-307 limits assumed): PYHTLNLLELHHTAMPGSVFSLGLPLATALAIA
Description: FIG. 23. Binding recognition of C7 peptide by humanized anti-CMKLR1 derived from 2G1. Binding of C7biot in the supernatant of CHO cells transfected with different combinations of heavy and light chains (VHWT+VLWT: combination of SEQ ID No. 37 and SEQ ID No. 49; HCLC: combination of SEQ ID No. 42 and SEQ ID No.52; HDLC: combination of SEQ ID No. 43 and SEQ ID No.52; HCLD: combination of SEQ ID No. 42 and SEQ ID No.53; HDLD: combination of SEQ ID No. 43 and SEQ ID No.53).
FIG. 24. ED50 of anti-CMKLR1 derived from 2G1 antibody. 2G1 wt: HALA: combination of SEQ ID No. 41 and SEQ ID No. 50; combination of SEQ ID No. 37 and SEQ ID No. 49; HCLC: combination of SEQ ID No. 42 and SEQ ID No.52; HDLC: combination of SEQ ID No. 43 and SEQ ID No.52; HCLD: combination of SEQ ID No. 42 and SEQ ID No.53; HDLD: combination of SEQ ID No. 43 and SEQ ID No.53.
FIG. 33—Binding of purified antibodies on human ChemR23 peptide by ELISA assay (A), with ED50 concentration (ng/ml) (B). For activity ELISA assay, donkey anti-human IgG, Fc specific (Jackson Immunoresearch; USA; reference 709-005-098) was immobilized on plastic at 1.3 μg/ml in borate buffer (pH9) and purified antibody was added to measure binding in BSA1% buffer, compared to wild-type 2G1.
For activity ELISA assay, donkey anti-human IgG, Fc specific (Jackson Immunoresearch; USA; reference 709-005-098) was immobilized on plastic at 1.3 μg/ml in borate buffer (pH9) and purified antibody were added to measure binding in BSA1% buffer, compared to wild-type 2G1.
For activity ELISA assay, donkey anti-human IgG, Fc specific (Jackson Immunoresearch; USA; reference 709-005-098) was immobilized on plastic at 1.3 μg/ml in borate buffer (pH9) and purified antibody was added to measure binding in BSA1% buffer, compared to wild-type 2G1.

[3] = system: PMN from healthy volunteers; test: Percentage of dead PMN (mortality of neutrophils) on coated antibodies; assay type: cell-based, human
Method: […] Mortality of PMN was analyzed by incubating PMN with specific markers of the mortality and viability and then counted by picture analysis.
FIG. 36—Increase of dead PMN neutrophils in vitro with anti-ChemR23 antibodies coated. PMN from healthy volunteers were incubated in culture medium with coated HEF-LDT52S, HEF-LEF and HDLD antibody variants at 10 μg/mL for 24 h and stained either with a dead/viability kit (LIVE/DEAD (Invitrogen)). The percentages of positive cells were obtained by analyzing the pictures with Fiji software. Isotype control was added as control.
(§1) PMN from healthy volunteers were incubated in culture medium with coated Ab at 10 μg/mL for 24 h or 5 h and stained either with a dead/viability kit (LIVE/DEAD (Invitrogen)) or a specific marker of reactive oxygen species (ROS) respectively. The percentages of positive cells were obtained by analyzing the pictures with ImageJ software.
PMN from healthy volunteers were incubated in culture medium with coated HEF-LDT52S, HEF-LEF and HDLD antibody variants at 10 μg/mL for 24 h and stained either with a dead/viability kit (LIVE/DEAD (Invitrogen)). The percentages of positive cells were obtained by analyzing the pictures with Fiji software. Isotype control was added as control.

[4] = system: ROS production by PMN from healthy volunteers; test: ROS test in PMN; assay type: cell-based, human; conditions: coated Ab at 10 μg/mL, after 5 h; FIG. 26C
Method: (§2) Neutrophils were isolated from blood of healthy volunteers and cultured for 24 h (Mortality analysis), or 4 h, 6 h, 11 h (Caspase-3 assay), or 5 h (ROS assay) on coated Iso ctrl (cross), chimeric anti-ChemR23 2G1 (square) or different humanized versions of the 2G1 (diamonds). Mortality of PMN was analyzed by incubating PMN with specific markers of the mortality and viability and then counted by picture analysis.
as §1

[5] = system: Caspase-3 in PMN from healthy volunteers; test: Caspase-3 expression in PMN by Western Blot; assay type: cell-based, human; conditions: coated Ab at 10 μg/mL, FIG. 26B
Method: as §2
PMN from healthy volunteers were incubated in culture medium with coated Ab at 10 μg/mL for different times and collected for Caspase-3 staining analyzed by Western Blot. The intensity of Capase-3 expression was calculated on WB.

CC[C@@H](O)/C=C/C=C\C[C@@H](O)/C=C/C=C/C=C\[C@@H](O)CCCC(=O)O [RvE1, Resolvin E1, reference compound]
colon length (colitis induced by TNBS): the same as normal animal | expression of CD80, CD86, CD103, CD40 and IAb (Mice dendritic cells): strong decrease | PMNs number ([1]; first 50 hours after Zymosan A, FIG. 7A): slightly less | Macrophages number ([1]; first 50 hours after Zymosan A, FIG. 7B): slightly less | resolution index ([1]; FIG. 7C): better resolution index

B1: HCLC: humanized 2G1 variant: combination of SEQ ID No. 42 and SEQ ID No. 52 (antibody, V domains shown)
VH: EVQLVESGGGLVQPGGSLRLSCAASGFTFSSYGMSWVRQAPGKGLELVATINRYGGSTYYAASVKGRFTISRDNSKNTLYLQMNSLRAEDTAVYYCPKLIYYGNEGDSWGQGTLVTVSS
VL: AIQLTQSPSSLSASVGDRVTITCRASQSVSFLHWYQQKPGKAPKRWIYDATKLTSGVPSRFSGSGSGTDFTLTISSLQPEDFATYYCQQWNSKPPLTFGGGTKVEIK
binding activity to antigen-specific peptides (C7 peptide) [2]: even better than the germline antibody HALA and the wild type antibody 2G1

B2: HCLD: humanized 2G1 variant: combination of SEQ ID No. 42 and SEQ ID No. 53 (antibody, V domains shown)
VH: B1 VH
VL: B1 VL with N91Q
binding activity to antigen-specific peptides (C7 peptide) [2]: even better than the germline antibody HALA and the wild type antibody 2G1

B3: HEF-LEF: humanized 2G1 variant: HEF (SEQ ID NO: 91) with LEF (SEQ ID NO: 55) (antibody, V domains shown)
VH: B1 VH with G33A, A49S, N52S, R53G, Y54S
VL: B1 VL with W46L, T51S, T54E, N91Q
mortality of PMN (percentage of dead PMN) ([3]; coated Ab at 10 μg/mL, 24 h, FIG. 26, FIG. 36): accelerate the death of PMN

B4: HDLC: humanized 2G1 variant: combination of SEQ ID No. 43 and SEQ ID No. 52 (antibody, V domains shown)
VH: B1 VH with G33A
VL: B1 VL
binding activity to antigen-specific peptides (C7 peptide) [2]: even better than the germline antibody HALA and the wild type antibody 2G1

B5: HALA: humanized 2G1 germline antibody: combination of SEQ ID No. 41 and SEQ ID No. 50 (antibody, V domains shown)
VH: B1 VH with A61P, A62D, K98R
VL: B1 VL with R24S, Q27S, L32M, A50T, F70Y
ROS production by PMN [4]: increase the ROS production | percentage of dead cells ([3]; at 48 hours, compared with IgG1 control): similar | caspase-3 cleavage ([5]; 4 h, 6 h, 11 h): increases caspase-3 cleavage | caspase-3 activity [5]: higher effect on caspase 3 activity as compared to the 2G1 antibody
